This experiment has as its target CD20 on human lymphoma cells (Daudi, Jeko-1) (UniProt P11836). The experiment can be described thus: cell-based or functional assay.

CD20 on human lymphoma cells (Daudi, Jeko-1), sequence (P11836 whole entry): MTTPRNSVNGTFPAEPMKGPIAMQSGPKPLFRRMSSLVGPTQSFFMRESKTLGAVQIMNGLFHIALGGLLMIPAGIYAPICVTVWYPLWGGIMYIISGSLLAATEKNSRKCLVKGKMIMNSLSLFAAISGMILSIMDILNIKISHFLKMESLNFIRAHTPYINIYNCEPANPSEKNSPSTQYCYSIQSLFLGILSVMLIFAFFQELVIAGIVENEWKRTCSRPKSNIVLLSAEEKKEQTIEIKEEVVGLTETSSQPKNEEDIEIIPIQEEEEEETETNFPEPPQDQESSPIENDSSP

20-2b (from UniProt P01563 24-188) returned an EC50, high-concentration response, in vitro proliferation of Jeko-1 cells of 0.85 nM and an EC50, low-concentration response, in vitro proliferation of Jeko-1 cells of 0.00097 nM.

veltuzumab (antibody) yielded an EC50, in vitro proliferation of Jeko-1 cells of 1.5 nM.
